# Data taken from US9028810B2, “Composition for inducing migration of neural stem cells containing periostin as effective ingredient” (Ajou University Industry—Academic Cooperations Foundatin, priority 2010, dated 2015).
# B1: periostin (protein)
# chain: NNHYDKILAHSRIRGRDQGPNVCALQQILGTKKKYFSTCKNWYKKSICGQKTTVLYECCPGYMRMEGMKGCPAVLPIDHVYGTLGIVGATTTQRYSDASKLREEIEGKGSFTYFAPSNEAWDNLDSDIRRGLESNVNVELLNALHSHMINKRMLTKDLKNGMIIPSMYNNLGLFINHYPNGVVTVNCARIIHGNQIATNGVVHVIDRVLTQIGTSIQDFIEAEDDLSSFRAAAITSDILEALGRDGHFTLFAPTNEAFEKLPRGVLERIMGDKVASEALMKYHILNTLQCSESIMGGAVFETLEGNTIEIGCDGDSITVNGIKMVNKKDIVTNNGVIHLIDQVLIPDSAKQVIELAGKQQTTFTDLVAQLGLASALRPDGEYTLLAPVNNAFSDDTLSMDQRLLKLILQNHILKVKVGLNELYNGQILETIGGKQLRVFVYRTAVCIENSCMEKGSKQGRNGAIHIFREIIKPAEKSLHEKLKQDKRFSTFLSLLEAADLKELLTQPGDWTLFVPTNDAFKGMTSEEKEILIRDKNALQNIILYHLTPGVFIGKGFEPGVTNILKTTQGSKIFLKEVNDTLLVNELKSKESDIMTTNGVIHVVDKLLYPADTPVGNDQLLEILNKLIKYIQIKFVRGSTFKEIPVTVYKPIIKKYTKIIDGVPVEITEKETREERIITGPEIKYTRISTGGGETEETLKKLLQEEVTKVTKFIEGGDGHLFEDEEIKRLLQGDTPVRKLQANKKVQGSRRRLREGRSQ
# notes: induces migration of neural stem cells
# Columns and labels:
# [1] = tested on: DCX and ERK in neural stem cells; assay: Transwell membrane immunostaining of ERK and DCX in migrated cells; assay type: cell-based, human; settings: periostin 10 μg/ml, 12 hours; for location of DCX in migrated cells: with or without inhibitor; for cell migration: VEGF 10 ng/ml
# Procedure: To analyze the ERK and DCX affection of migrated cells, transwell membrane immunostaining was performed using ERK and DCX antibodies (Cell signaling tech., Danver, Mass.).
# Cultured neural stem cells were detached with 0.05% trypsin, washed with DMEM medium and re-suspended in DMEM medium, after which 5×10^4 neural stem cells were inoculated into an upper chamber (Costar Transwell) in 200 μl of 10% FBS-containing DMEM medium. After one day, a lower chamber was treated with each of VEGF (10 ng/ml), periostin (10 μg/ml) and periostin+inhibitor. After 12 hours, the changes in locations of DCX and ERK in the cells that migrated from the upper chamber through the 8-μm porous polycarbonate membrane to the lower portion of the membrane in response to the stimulation of the lower chamber were examined.
# Next, the membrane was washed with PBS, blocked twice with a solution of 5% goat serum and 0.5% triton X-100 in PBS for 30 minutes, and then washed with a solution of 0.5% BSA (bovine serum albumin) in PBS for 15 minutes. After this, the membrane was incubated with a 1:500 dilution of goat polyclonal human DCX antibody and a 1:1000 dilution of rabbit polyclonal human ERK antibody at 4° C. overnight, and then washed twice with PBS for 15 minutes each time. Next, the membrane was incubated with biotin-conjugated anti-rabbit secondary antibody at room temperature for 1 hour and washed trice with PBS, after which […] was detected by staining the membrane using an avidin-biotin kit (Vector, Calif.) and a diaminbenzidin peroxidase (DAB) kit (Vector, Calif.).
# [2] = tested on: HB1.F3 human neural stem cell line; assay: Boyden chamber migration assay, HB1.F3 neural stem cells; assay type: cell-based; settings: for increase in ability to induce the migration of neural stem cells compared to not treated: Boyden chamber
# Procedure: (§1) In order to examine the effect of periostin on the migration of neural stem cells, a Boyden chamber assay was performed using two human neural stem cell lines (HB1.F3 and HB1.F5), thereby determining whether human neural stem cells migrated in response to periostin in vitro. For controls, VEGF (vascular endothelial growth factor) was used as a positive control, and FBS-DMEM medium was used as a negative control.
# (§2) Specifically, cultured neural stem cells were detached with 0.05% trypsin, washed with DMEM medium, and then re-suspended in DMEM medium, after which 5×10^4 cells seeded into an upper chambers (Costar Transwell) in 200 μl of 10% FBS-containing DMEM medium. After one day, a lower chamber was treated with various concentrations of periostin or VEGF. The periostin was used at concentrations of 5, 10 and 20 μg/ml, and the VEGF was used at concentrations of 5, 10 and 20 ng/ml. 10% FBS-DMEM medium was used as a negative control. After 12 hours, in order to determine the number of cells that migrated from the upper chamber through a 8-μm porous polycarbonate membrane to the lower portion of the membrane in response to the stimulation of the lower chamber, the migrated neural stem cells were stained with hematoxylin and then counted.
# (§3) After one day, a lower chamber was treated with 10 μg/ml of periostin, and after 4 hours, 8 hours, 12 hours and 24 hours, the migrated cells were stained with H&E (hematoxylin & eosin), counted and photographed (Olympus BX51, Japan).
# neural stem cells = assay: In vitro migration assay using ERK pathway and CDK5 pathway inhibitors; assay type: cell-based, human; settings: 12 hours
# Description: It has been reported that, in the development of the central nervous system, neural stem cells migrate from the subventricular zone to cortex through radial glial cells using the ERK (extracellular signal regulated kinase) and CDK5 signaling pathways, and in the neuronal migration, DCX participated in nucleus translocation, neucleokinesis (Niethammer et al., 2000).
# Cultured neural stem cells were detached with 0.05% trypsin, washed with DMEM medium and re-suspended in DMEM medium, after which 5×10^4 cells were inoculated into an upper chamber (Costar Transwell) in 200 μl of 10% FBS-containing DMEM medium.
# After 12 hours, in order to determine the number of cells that migrated from the upper chamber through a 8-μm porous polycarbonate membrane to the lower portion of the membrane in response to the stimulation of the lower chamber, the migrated neural stem cells were stained with hematoxylin & eosin and counted.
# [3] = tested on: HB1.F5 human neural stem cell line; assay: Boyden chamber migration assay, HB1.F5 neural stem cells; assay type: cell-based
# Procedure: as §1
# as §2, with “The periostin was used at concentrations of 5, 10 and 20 μg/ml, and the VEGF was used at concentrations of 5, 10 and 20 ng/ml. 10% FBS-DMEM medium was used as a negative control.” left out
# as §3
# [4] = tested on: PI3K/AKT signaling pathway (PI3K-AKT-mTOR-CDK5-Nudel1, PAK1); assay: Western blotting of FAK / PI3K-AKT signaling pathway after periostin treatment; assay type: cell-based, human
# Procedure: The FAK signaling pathway is linked to kinases as its downstream pathways and transduces signals. With respect to cell migration, the PI3K/AKT signaling pathway (PI3K-AKT-mTOR-CDK5-Nudel1, PAK1) is frequently used as the downstream pathway of FAK, and thus the following experiment was performed in order to determine the kinase activation pathway.
# First, neural stem cells treated with periostin were washed with PBS and lysed with PMSF and a protease inhibitor in RIPA buffer (0.5% sodiumdeoxycholate, 0.1% sodiumdodecyl sulfate, 1% NP-40, PBS). Protein concentration was determined by a Bio-Rad-DC protein assay (Bio-Rad, Hercules, Calif., US). The samples were adjusted to the same protein concentration, after 30 μg of each protein was separated on SDS-PAGE gel. Then, protein samples were transferred to an immobilon-P membrane (Millipore Corp., MA, US). For protein detection, the membrane was incubated in TBS-T 5% skim milk at room temperature for 30 minutes and washed three times with TBS-T for 15 minutes each time. Then, the membrane was incubated with primary antibodies of FAK, pFAK, PAK and pPAK (1:1000 dilution; Epitomics) in 5% BSA-TBS-T overnight at 4° C. Then, the membrane was washed three times with TBS-T for 15 minutes each time. Then, the membrane was incubated with secondary anti-rabbit antibody (1:2000 dilution; Zymed, Calif., USA) at room temperature for 1 hour. The membrane was washed three times with TBS-T, after which the antibody binding protein was added to an ECL Western blotting detection solution (Amersham Pharmacia Biotechnology, buckinghamahire, UK) for 1 minute and exposed to Kodak X-ray firm for detection. The Western blotting analysis was performed at various time points between 0 and 12 hours after treatment with periostin.
# [5] = neural stem cells, Western blotting 0-12 hours
molecule,measurement,setting,value
"CC[C@H](CO)Nc1nc(NCc2ccccc2)c2ncn(C(C)C)c2n1 [roscovitine, reference compound]",location of DCX in migrated cells,[1],the concentration of DCX around the nuclei was inhibited
"vascular endothelial growth factor [VEGF, reference compound]",increase in ability to induce the migration of neural stem cells compared to not treated,"[2]; HB1.F3 cells, 12 hours",25%
same,concentration at which ability of VEGF to induce migration was the highest,"[2]; tested 5, 10 and 20 ng/ml, 12 hours",5 ng/mL
same,cell migration,[1],induced cell migration
COc1cccc(-c2cc(=O)c3ccccc3o2)c1N [PD98059],inhibition of migration of neural stem cells induced by periostin,neural stem cells; 20 nM inhibitor with periostin in lower chamber,40%
same,migration of neural stem cells in control group not treated with periostin,neural stem cells; 20 nM inhibitor,inhibited
B1,migration of neural stem cells over time,"[2]; HB1.F3, 10 μg/ml periostin, 4, 8, 12 and 24 hours",increased with time
same,increase in induction of migration relative to that by VEGF,[2]; HB1.F3 cells,about 4 times
same,increase in ability to induce the migration of neural stem cells compared to not treated,"[2]; HB1.F3 cells, 12 hours",about 100%
same,concentration at which ability of periostin to induce migration was the highest,"[2]; tested 5, 10 and 20 μg/ml, 12 hours",10 µg/mL
same,migration of neural stem cells over time,"[3]; HB1.F5, 10 μg/ml periostin, 4, 8, 12 and 24 hours",increased with time
same,migration of neural stem cells upon treatment,"[3]; HB1.F5 cells, 12 hours",increased upon treatment with periostin
same,time for which Nudel1 activation was maintained,[4]; activated when PAK1 activation decreased,12 h
same,time after treatment at which AKT and mTOR were activated,[4]; [5],1 h
same,time after treatment at which PAK1 started to be activated,[4]; [5],1 h
same,time after treatment from which FAK was highly activated,[4]; [5],30 min
same,time up to which CDK5 activation was maintained,[4]; [5],12 h
same,time up to which PAK1 activation was maintained,[4]; [5],6 h
same,cell migration,[1],induced cell migration
same,location of DCX in migrated cells,[1],DCX was concentrated around the nuclei
